Read-outs that look alike come from different tables or passages of the source.
Legend:
[1] = molecular target: F-actin prepared from rabbit skeletal muscle (rabbit) (UniProt P68135); assay: co-sedimentation
[2] = molecular target: rhodamine-phalloidin-labeled, 10% biotinylated filamentous actin (UniProt P68135); assay: optical trapping
[3] = molecular target: F-actin prepared from rabbit skeletal muscle (rabbit) (UniProt P68135); assay: co-sedimentation; remark: listed apart in the source

Row | Substance | Kd [1] [nM] | koff [2] [s⁻¹] | Kd [3] [nM] | fraction bound in the first sedimentation at 20 μM actin [3] [%]
1 | Drosophila myosin-18 M-PDZ (minimal motor domain construct with the N-terminal PDZ domain) (domain or fragment) | 1500 | 94.2 | 2600 | 54.9
2 | Drosophila myosin-18 M-ΔPDZ (minimal motor domain construct without the PDZ domain) (domain or fragment) | 1000 | 57 | 1000 | 
